Experimental data from US20220160891A1 (Johns Hopkins, published 2022).
Like-named read-outs stand apart in the source and are kept apart here.

T1: yeast surface-displayed mouse IL-2 (residues 1-149) (mouse, UniProt P04351 21-169)
T1 construct: range 1-149; also called mIL-2; not shown: yeast display anchor encoded by the pCT302 vector
T1 sequence (looked up): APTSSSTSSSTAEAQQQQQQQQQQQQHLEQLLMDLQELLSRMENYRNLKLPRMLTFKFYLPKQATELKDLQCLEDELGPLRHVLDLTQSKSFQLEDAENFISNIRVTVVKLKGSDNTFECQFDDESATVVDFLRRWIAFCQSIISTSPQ

B1: recombinant F5111 antibody (human IgG1 lambda) (antibody, V domains shown)
VH: QLQLQESGPGLVKPSQTLSLTCTVSGGSISSGGYYWSWIRQHPGKGLEWIGYIYYSGSTYYNPSLKSRVTISVDTSKNQFSLKLSSVTAADTAVYYCARTPTVTGDWFDPWGRGTLVTVSS
VL: NFMLTQPHSVSESPGKTVTISCTRSSGSIASNYVQWYQQRPGSSPTTVIYEDNQRPSGVPDRFSGSIDSSSNSASLTISGLKTEDEADYYCQSYDSSNVVFGGGTKLTVLG
notes: also called F5111 Ab; monoclonal antibody F5111

Key:
[1] = target: biotinylated human IL-2Ralpha extracellular domain (residues 1-214) (human) (UniProt P01589); test: bio-layer interferometry equilibrium titration on immobilized hIL-2Rα, response MW normalized
[2] = target: T2, yeast surface-displayed human IL-2 (residues 1-133) (human, UniProt P60568 21-153); test: yeast surface display titration of soluble antibody, flow cytometry; apparent bivalent affinity
T2 construct: also called hIL-2; not shown: yeast display anchor encoded by the pCT302 vector
Method: (§1) Yeast surface binding studies. […] Cells were then washed and stained with a 1:200 dilution of Alexa647-conjugated streptavidin (Thermo) in PBSA for 15 minutes at 4° C. After a final wash, cells were analyzed for antibody binding using a CytoFLEX flow cytometer (Beckman Coulter). Background-subtracted and normalized binding curves were fitted to a first-order binding model and equilibrium dissociation constant (KD) values were determined using GraphPad Prism.
(§2) A rapid small-scale HEK 293F cell transfection assay was developed to optimize immunocytokine expression. […] After a 3-day incubation, secreted protein was captured from the supernatant with protein G resin, eluted with 0.1 M glycine pH 2.0, and analyzed via SDS-PAGE. […] Immunocytokine expression was scaled up in HEK 293F cells and the secreted protein was purified via protein G affinity chromatography followed by size-exclusion chromatography.

[3] = target: T3, biotinylated human IL-2 immobilized on streptavidin-coated tips (human, UniProt P60568 21-153, biotinylated (site not stated)); test: bio-layer interferometry equilibrium titration on immobilized hIL-2, response MW normalized
T3 construct: also called biotinylated hIL-2; immobilized hIL-2; not shown: tags and biotinylation site of the biotinylated hIL-2 construct are not described (the BAP tag is described only for hIL)
Method: (§3) Bio-layer interferometry binding studies. […] Less than 5 signal units (nm) of receptor was immobilized to minimize mass transfer effects. […] An irrelevant protein was included in a reference well to subtract non-specific binding. Surface regeneration for all interactions was conducted using a 15 second exposure to 0.1 M glycine pH 3.0. Experiments were carried out in PBSA (phosphate-buffered saline, pH 7.3 plus 0.1% bovine serum albumin (BSA, Thermo Fisher Scientific)) at 25° C. Data was visualized and processed using the Octet® Data Analysis software version 7.1 (Molecular Devices). Equilibrium titration curve fitting and KD value determination was implemented using GraphPad Prism, assuming all binding interactions to be first order.

[4] = target: T2, yeast surface-displayed human IL-2 …; test: yeast surface titration on hIL-2-displaying yeast, flow cytometry, normalized MFI
Method: as §1, §2

[5] = target: T2, yeast surface-displayed human IL-2 …; test: as above; remark: listed apart in the source
Method: as §1

[6] = target: T3, biotinylated human IL-2 immobilized on …; test: bio-layer interferometry equilibrium titration on immobilized hIL-2, response MW normalized; remark: listed apart in the source
Method: as §3

[7] = target: T1, yeast surface-displayed mouse IL-2 …; test: yeast surface titration on mIL-2-displaying yeast, flow cytometry, normalized MFI

T2 sequence (P60568 21-153): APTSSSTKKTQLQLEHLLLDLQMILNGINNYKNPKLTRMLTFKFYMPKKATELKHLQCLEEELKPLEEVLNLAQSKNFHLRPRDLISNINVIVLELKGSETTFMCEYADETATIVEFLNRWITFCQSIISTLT
T3 sequence (P60568 21-153): as above

| Molecule | EC50 (read off the curve) [1] [nM] | Kd [2] [nM] | EC50 (read off the curve) [3] [nM] | Kd [4] [nM] | EC50 (read off the curve) [5] [nM] | EC50 (read off the curve) [6] [nM] | binding result [7] |
| --- | --- | --- | --- | --- | --- | --- | --- |
| hIL-2/F5111 complex (from UniProt P60568 21-153) | 8 | – | – | – | – | – | – |
| human IL-2 cytokine (residues 1-133), soluble, C-terminal hexahistidine tag (from UniProt P60568 21-153) (ligand) | 5 | – | – | – | – | – | – |
| B1 | – | 0.43 | ~3 | 0.42 | ~0.08 | ~0.6 | no binding (tested: about 1e-7 M) |
